This data set in a line: soluble on expression in E. coli; label from the status in PepcDB or PDB records.
For the sequence “GPGSMYTHTRMHTTSASATLLSLPLCVRASPTNTPAAQLSALSDHLGLRVIKTNNLHTSSRSNMPAKAAAKPVKPAAKAAPKPANKAPAPKAAAAKPVAKAAPKAAAPAARPASGSSNGVYVKNWGTGSVADAANVFSAAGKVVKVQLRRQRYAIVFFENSAAVKKAIDLFNEKEVLGKTVLVVPAKTSPKPDAHENSSCVFVSPIFRPSTTKAQVMELFAGVKVQRLRMYRQNFAYAYLDSPAAAKKFVEEKNGTEFRGHTLRVALSARSLEKLRARQEAANVVIAAHRHYKTHERQ”, the “soluble on expression in E. coli” value was “not soluble”.

Turning to “MGSDKIHHHHHHMNNKDLWIKEEIIWSEHKCIRFAAGGYEALIIPDVGGNVVELKDTNKGVTILRTPKKDLKFEDFKNRPQVYGLPVLFPPNRIDDGTFKLGDKTYKFPINEAKNNNYIHGFIKNSKWTVHKKKIDQDKALVEVVFDFTKENEAYKYFSHEFQFKLSYELSSKGLKQTTSVVNLSSEEMPLSVGYHSAFNVPFIEGSEDSNCRVKISIDKFWKQDSRNLPTGESFAPTGEQKEYLENGVAVASHPIESLFSLKDIDVNGKTFRGACIEDASKNTRVVYEMSSEYKYLVIWNDMGDKKYACIEPQTSIINSPNVKLDRSVSGFKTLKPNESWSGVCKLYIENM”, the “soluble on expression in E. coli” value is given as “not soluble”.

In the case of “MRGSHHHHHHGSMAVPPTYADLGKSARDVFTKGYGFGLIKLDLKTKSENGLEFTSSGSANTETTKVNGSLETKYRWTEYGLTFTEKWNTDNTLGTEITVEDQLARGLKLTFDSSFSPNTGKKNAKIKTGYKREHINLGCDVDFDIAGPSIRGALVLGYEGWLAGYQMNFETSKSRVTQSNFAVGYKTDEFQLHTNVNDGTEFGGSIYQKVNKKLETAVNLAWTAGNSNTRFGIAAKYQVDPDACFSAKVNNSSLIGLGYTQTLKPGIKLTLSALLDGKNVNAGGHKLGLGLEFQA”, the “soluble on expression in E. coli” value is listed as “soluble”.

For the sequence “MVKKMCQDYLSSSGLCSQETLEINNDKVAESLGITEFLRKKEIHPDNLGPKHLSRDMDGEQLEGASSEKREREAAEEGLASVKRPRREALSNDTTESLAANSRGREKPRPLHALAAGTIVSQEEDIVTVTDAEGRACGWAR”, the “soluble on expression in E. coli” value was “soluble”.

For the sequence “GHMNAYLSDQPVRLSPLRDEQGNQPRFGLLLEPGRPGMHVGELPAQWLKGLARSHHLLLLRGFAAFADAESLTRYCHDFGEVMLWPFGAVLELVEQEGAEDHIFANNYVPLHWDGMYLETVPEFQVFHCVDAPGDSDGGRTTFSSTPAALQLADSSELELWRRASGRYQRSAAHYSSRSAAPIVERHPRREFPILRFCEPPVEGDASFINPSEFHYDGIAPEQRGELLASLRRCLYHPQAHYAHRWRSDDLVIADNLTLLHGREAFAHRAPRHLRRVHIHAEPALRNPHLQRD”, the “soluble on expression in E. coli” value was “soluble”.

In the case of “MAPAKKVETRSTDGETRRHIMLIMLKEGPVTATQLGQQLNLSATGIRRHLDILLDEGFAEISSVRRVACEKSRGRPAKAFKLTASGRSQFGHEYDSLAAEALATLKESGGEAAVRAFARKRVEKILADVHVPDNIDDNQLAEVATQLVEAFSNNGYAATINNAANGVQICQHHCPISGVAADFPELCEAEHEMIAKILGHHVQPLASIADGHDICTTNIPITPILTPRKNTPTERSGS”, the “soluble on expression in E. coli” value was “not soluble”.

For “MTATSDKVLKIQLRSASATVPTKGSATAAGYDIYASQDITIPAMGQGMVSTDISFTVPVGTYGRIAPRSGLAVKNGIQTGAGVVDRDYTGEVKVVLFNHSQRDFAIKKGDRVAQLILEKIVDDAQIVVVDSLEESARGAGGFGSTGN”, the “soluble on expression in E. coli” value is “not soluble”.

In the case of “MKKWRFLGIDDSFDDRKCCVVGCVTCGGYVEGFLYTEIDIDGLDATDKLISMVRRSKFREQIKCIFLPGITLGGFNLVDIQRVYRETKIPVVVVMRRKPDMEEFDSAMRNLENYELRRKIVEVAGEIHRIGDIYIQTAGLTPSEAEKLVKASLIKGNMPEPVRISHLVASAIIHGESRGKA”, the “soluble on expression in E. coli” value is given as “soluble”.

As to “MSGIKPSVSKGESQAPQTRQLEASKPTVQGIIDILHDTISYVQVEKQSKTINFSIPHLQMIKEQLESIQLKDKNYKDLEKKFNEKQDEHLETIQKLDSTLSRQKLKYDDMRQALSVKIYTLENECSNLQDNYADLQNDFEVQIEKFKKLQNLKSIQNHENSKNVNPLTLDELTEQLKQFKEELSIDQKLKNIQLTCEGLQSAVGNFEMNSKKAKEIEILKMDIKKTQELYESRLLRAAQENKKLLRKNDTLKNYLDNQTAKIGELTAGNKTENRSPTPTLQGLIEILQKFSDDQKLEPECKMLQLHKEECRLILESLEVHDKKDQEIQWFQRQINDQKKRIANLGWSYENALEDKDALELKLEHQYEQMMELKKNFIPKNEISEDLAKTVRNFGKRLRNSRGNLKNAFKELEALKEVQEEEGSSDESSESSASDDLPDGDSSSEE”, the “soluble on expression in E. coli” value was “not soluble”.

For “SATTVTLEKCGHNKGYKGLDNCRFCPGSQCCVEDGPESIDSIIDMDAVCKRVTTLGLDVSVTISQDAGRYLCDFTYYTSLYQSHGRSAFVHVPPLGKPYNADQLGRALRAIIEEMLDLLEQSEGKINYCHKH”, the “soluble on expression in E. coli” value is “soluble”.

With “MHHHHHHMKRKSIFKDKVFLFLNAKQYKKLSPAVLFGGGKTDLLMGELKDASVLDNPATCVIDVAMTESQLSESQSTQPWITSTLDLLQSKGLRTIPEAEIGLAVINVSTEIYCNPRR”, the “soluble on expression in E. coli” value is on record as “soluble”.

As for “MVDGNYSVASNVMVPMRDGVRLAVDLYRPDADGPVPVLLVRNPYDKFDVFAWSTQSTNWLEFVRDGYAVVIQDTRGLFASEGEFVPHVDDEADAEDTLSWILEQAWCDGNVGMFGVSYLGVTQWQAAVSGVGGLKAIAPSMASADLYRAPWYGPGGALSVEALLGWSAKIGTGLITSRSDARPEDAADFVQLAAILNDVAGAASVTPLAEQPLLGRLIPWVIDQVVDHPDNDESWQSISLFERLGGLATPALITAGWYDGFVGESLRTFVAVKDNADARLVVGPWSHSNLTGRNADRKFGIAATYPIQEATTMHKAFFDRHLRGETDALAGVPKVRLFVMGIDEWRDETDWPLPDTAYTPFYLGGSGAANTSTGGGTLSTSISGTESADTYLYDPADPVPSLGGTLLFHNGDNGPADQRPIHDRDDVLCYSTEVLTDPVEVTGTVSARLFVSSSAVDTDFTAKLVDVFPDGRAIALCDGIVRMRYRETLVNPTLIEAGEIYEVAIDMLATSNVFLPGHRIMVQVSSSNFPKYDRNSNTGGVIAREQLEEMCTAVNRIHRGPEHPSHIVLPIIKRKLAAALEHHHHHH”, the “soluble on expression in E. coli” value is recorded as “soluble”.

Take “MYSKIEGSIITARFDKETDFFTDLVDLCNKYEVKSGTVLWAIGMLKEFQIGYWNGNDYEKETFRERLELVSLHGSIAENDPRFHIHAAGARGNHGIVGGHLFSAKVDPLVEIQIMKITGFSMSRELDNSDGLYKLVIKLEHHHHHH”: the “soluble on expression in E. coli” value is listed as “not soluble”.

On to “SVRTACKSRAVSSGKQTGKWQSWSDAGVLTVFECEGLKLILNTWTPIPFSPFPVHHLFTPMLIGRLCGTRIETLALIHGGISLPATALRSPNSGVKLPLLVSPLFPMETTPSALRLLSSHKAESGSPTLFTLVHLLPLLLQ”, for which the “soluble on expression in E. coli” value is reported as “soluble”.

“MQDPRHPQGLPLSPGLPKRQRQDRTIYNWKQQEVLENHFKEEQYPDYDTRQELAEMLNLREYQVQVWFKNRRAKRSREQWFQKQLQQLQKHPQQQHPQQQHPQQQLQQQQPQQQPQQQQPQQQQLHQQPQ”: the “soluble on expression in E. coli” value is listed as “soluble”.

“MGSDKIHHHHHHMVEPSKVVGLISDFGDSPYTGIMRAVIKSISRELQIIDIDHSIPSFSPLAGAYVVAHTYQWLPKGSVIVAVVDPGVGTSRYALAVETENYVFIGPDNGVLYPAAASDGIKRVYALREKDVNSLARMKTSSTAGTVKPWSISRTFHGRDVFAPAGALIAAGHASLEELGDEIEPERMKRASIDHVEKLGPSTFRATVVYIDKFGNVALSIRPKKLGINLSLYKSVVLGTHTTSNTIRMGKTFGDANPGELVAYENSFGHLEIAVNRGNAAKKLGLELEARVEIELLENSGPAPNGSRGVRNADLLGVSSRSLGETIW”: the “soluble on expression in E. coli” value was “not soluble”.

In the case of “MEEKKPVNLVLPEVENAIFIEGYPGVGLVGHIAANFLAKELDMDLIGYVDSLFIPPMSLILEGRPTPPLRFYGKNNIIIAIADIFLPPTLVNEIAKEIVNYLKKVNAEKVISLAGMGIGFFKDTFEVWGIGGSEEENKELESLGVKILKYGSITGMSGKLLWEASRAGLKSYVLLGETFGDRPDPRAAANVVEVLNKMLGLNVSVEPLLKEAEMIEEQLRRMHEQMEEARRKMERQYETMYL”, the “soluble on expression in E. coli” value is listed as “not soluble”.

In the case of “MSLKTFLVCALEPSANLHLKEVLKAYKKDFGEFELHGIYDESLCKEFDLNSKPLYSSHEFSAMGFIEVLPLIFKAKKAIKELANLSFTQKINGILCIDSPAFNIPFAKALKKAGSKIPRIYYILPQVWAWKKGRIPIIESHFDILASILPFDNQFFNKSTYIGHPLLDEIKEFKNQEDINHTFSKKDDEKTIAFLPGSRRSEIRRLMPIFKELSQKFKGKKILCVPSFNLEKLEVYGDISEFKIESNTPKVLKKADFAFICSGTATLEAALVGTPFVLAYKAKAIDIFIAKLFVKLKHIGLANIFCDFAGKEALNPEFLQDKVNVLNLYEAYNKYDYKAFFAKVDFLKEYLQFGSAKNLAKILNEIEGHHHHHH”, the “soluble on expression in E. coli” value was “soluble”.

With “MTFLFDCLILLNILIATCQAIGRTQSTAIEGVLLCEDGPAKGVLIKLYDHDTVSPDELMDSAKTDADGHFRLSGTADEISGIEPKINIYHDCDDGILPCQRRITIFVPSKYVSNTKQPSETFNLGRLQLAGKYAGESRDCLH”, the “soluble on expression in E. coli” value is listed as “soluble”.

Take “MSSTAEEMAAAFEQTGGPDLTTGSGKRTKSDRVEHKHASQPGGDTRKVVQTASNGEAKRKEK”: the “soluble on expression in E. coli” value was “not soluble”.

“GAMGDPGLVSAYGAGLEGGVTGNPAEFVVNTSNAGAGALSVTIDGPSKVKMDCQECPEGYRVTYTPMAPGSYLISIKYGGPYHIGGSPFKAKVTGPRLV”: the “soluble on expression in E. coli” value is given as “soluble”.

Consider “MAHHHHHHMSGGDIWVRRAPIGHPREMTVSTSVNNGPGPQGRHLFAELPINAGGGEVVLGECGTSGPSRSCNAMFSFKPPRHEPLWQPTRLTSPYCVLSANGVQDDFYTSCLSWGKGNIALALRDEVLLFQPSRPLVRLAVLNVQERPRSIISRVTSVAVSRFSDSSCFMGELDGSVGVYASRGDGRLSQTSVFSKPPPPLENTPLAGEAAMTATASVRCLATTDVHPWLVAAGTAAQGLFIFDSRCEKPSAQMVECDTFIALDSKRARKPLSPEDCLSLLSSAEGICGVSWNASGSLVATGGSGGVVNIWSLSQTRAPVQQIKLPNAHTTVKAIAFNPTLPYELAVGGGTNDGMLRLYDVSSSVSYLAWCVSTGCQVTQALYSPDGAFIISAQGLRHDKFTADGRAHSTALRMPNSNGAGVDVHRDSMDALERLTEEFERGMTRNGRTQEELQEPAPSHSGTAMNWAGDTPRTDDSPAFSLVMWRRGTQHRHSVPLGFSNTKPRDRPRSQYIQETERTPLPLFSMYMMTGHRSRPLHLASPFSSTADRGSVASFAGGVDNTIRFWKCFCPRSEAVNWEHRTRASMRAAVTEEDVEGMMAMPLR”, for which the “soluble on expression in E. coli” value is “not soluble”.

As to “MGSDKIHHHHHHVGRIEGQACPATGIWLLPARRQTAYRIQKTSYSALSAPARMDGTDRLAWGRYDTVGTTLYLAENAECAFSETLSPFKRAIGTVDPLRKDADALGMTLEDFYEEVAYQWQEKSFMNSGTLPRIWRTERQLHIVELPFPGWWIDVEHPETMAAVEAAIPDTLKDLGITHVDTSLLRSNRRDVTTAIADHLRDLVLFDGSYAPGIKFGSRHGAYLNWAVWLRDHDLQLSGDDGLVHLGESPISFNDPDLEAASRRFRLKVF”, the “soluble on expression in E. coli” value is recorded as “not soluble”.

The values above are taken from the DeepSol protein solubility set.
